B1: Synaptotagmin-3 (Mus musculus), O35681 (parent)
chain: MSGDYEDDLCRRALILVSDLCARVRDADTNDRCQEFNELRIRGYPRGPDADISVSLLSVIVTFCGIVLLGVSLFVSWKLCWVPWRDKGGSAVGGGPLRKDLAPGVGLAGLVGGGGHHLGASLGGHPLLGGPHHHGHTAHHPPFAELLEPGGLGGSEPPEPSYLDMDSYPEAAVASVVAAGVKPSQTSPELPSEGGTGSGLLLLPPSGGGLPSAQSHQQVTSLAPTTRYPALPRPLTQQTLTTQADPSTEERPPALPLPLPGGEEKAKLIGQIKPELYQGTGPGGRRGGGSGEAGAPCGRISFALRYLYGSDHLVVRILQALDLPAKDSNGFSDPYVKIYLLPDRKKKFQTKVHRKTLNPIFNETFQFSVPLAELAQRKLHFSVYDFDRFSRHDLIGQVVLDNLLELAEQPPDRPLWRDILEGGSEKADLGELNFSLCYLPTAGRLTVTIIKASNLKAMDLTGFSDPYVKASLISEGRRLKKRKTSIKKNTLNPTYNEALVFDVAPESVENVGLSIAVVDYDCIGHNEVIGVCRVGPEAADPHGREHWAEMLANPRKPVEHWHQLVEEKTLSSFTKGGKGLSEKENSE
partner: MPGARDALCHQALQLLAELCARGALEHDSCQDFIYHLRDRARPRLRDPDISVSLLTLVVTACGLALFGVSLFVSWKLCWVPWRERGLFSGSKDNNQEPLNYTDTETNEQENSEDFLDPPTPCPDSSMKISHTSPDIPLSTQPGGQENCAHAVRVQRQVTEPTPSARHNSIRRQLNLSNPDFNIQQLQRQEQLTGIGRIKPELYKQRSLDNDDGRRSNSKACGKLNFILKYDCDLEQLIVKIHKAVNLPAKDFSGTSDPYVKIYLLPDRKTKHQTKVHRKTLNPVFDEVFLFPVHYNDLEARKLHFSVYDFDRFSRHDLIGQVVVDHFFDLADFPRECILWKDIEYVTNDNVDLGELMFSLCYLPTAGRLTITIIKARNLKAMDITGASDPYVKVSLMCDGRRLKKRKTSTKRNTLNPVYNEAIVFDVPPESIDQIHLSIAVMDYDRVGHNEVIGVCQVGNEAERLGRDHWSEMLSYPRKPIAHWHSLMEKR
B2: Synaptotagmin-6 (Mus musculus), Q9R0N8 (parent)
chain: MSGVWGAGGPRCQAALAVLASLCRARPPPLGLDVETCRSFELQSPEQSPSAADSGTSVSLLAVVVIVCGVALVAVFLFLFWKLCWMPWRKKEASSPSSANPASETLQSPSSRGNMADKLKDPSALGFLEAAVKISHTSPDIPAEVQMSVKEHIMRHTKLQRQTTEPASSTRHTSFKRHLPRQMHVSSVDYGNELPPAAAEQPTSIGRIKPELYKQKSVDGDDAKSEAAKSCGKINFSLRYDYESETLIVRILKAFDLPAKDFCGSSDPYVKIYLLPDRKCKLQTRVHRKTLNPTFDENFHFPVPYEELADRKLHLSVFDFDRFSRHDMIGEVILDNLFEASDLSRETSIWKDIQYATSESVDLGEIMFSLCYLPTAGRLTLTVIKCRNLKAMDITGYSDPYVKVSLLCDGRRLKKKKTTIKKNTLNPIYNEAIIFDIPPENMDQVSLLISVMDYDRVGHNEIIGVCRVGINAEGLGRDHWNEMLAYPRKPIAHWHSLVEVKKSFKEGTPRL
partner: B1 chain
B3: Synaptotagmin-10 (Mus musculus), Q9R0N4 (parent)
chain: MSFRKEDGVSSLCQKALHIITELCFAGQVEWDKCSGIFPADRSGQGGGGTDISVSLLAVVVSFCGLALLVVSLFVFWKLCWPCWKSKLVAPNLSVLPQSISSAPTEVFETEEKKEVEENEKPAPKAIEPAIKISHTSPDIPAEVQTALKEHLIKHARVQRQTTEPTSSSRHNSFRRHLPRQMNVSSVDFSVGTEPILQRGETRTSIGRIKPELYKQKSVDSEGNRKDDVKTCGKLNFALQYDYENELLVVKIIKALDLPAKDFTGTSDPYVKIYLLPDRKKKFQTRVHRKTLNPLFDELFQFPVVYDQLSNRKLHFSIYDFDRFSRHDMIGEVILDNLFEVSDLSREATVWKDIHCATTESIDLGEIMFSLCYLPTAGRMTLTVIKCRNLKAMDITGSSDPYVKVSLMCEGRRLKKRKTTTKKNTLNPVYNEAIIFDIPPENVDQVSLCIAVMDYDRVGHNEVIGVCRTGLDAEGLGRDHWNEMLAYHRKPITHWHPLLELPGRATSFDSQGSCSSPRPPSTP
partner: B2 chain
B4: Synaptotagmin-9 (Mus musculus), Q9R0N9 (parent)
chain: B1 partner
partner: B3 chain
B5: Synaptotagmin-3 (Mus musculus), O35681 (parent)
chain: B1 chain
partner: B3 chain
B6: Synaptotagmin-10 (Mus musculus), Q9R0N4 (parent)
chain: B3 chain
partner: B1 partner

Variants of: B1
Conditions: with syt9_mouse Syt9, Q9R0N9

Variant | effect of a mutation on the interaction
MSGDYEDDLARRALILVSDLCARVRDADTNDRCQEFNELRIRGYPRGPDADISVSLLSVIVTFCGIVLLGVSLFVSWKLCWVPWRDKGGSAVGGGPLRKDLAPGVGLAGLVGGGGHHLGASLGGHPLLGGPHHHGHTAHHPPFAELLEPGGLGGSEPPEPSYLDMDSYPEAAVASVVAAGVKPSQTSPELPSEGGTGSGLLLLPPSGGGLPSAQSHQQVTSLAPTTRYPALPRPLTQQTLTTQADPSTEERPPALPLPLPGGEEKAKLIGQIKPELYQGTGPGGRRGGGSGEAGAPCGRISFALRYLYGSDHLVVRILQALDLPAKDSNGFSDPYVKIYLLPDRKKKFQTKVHRKTLNPIFNETFQFSVPLAELAQRKLHFSVYDFDRFSRHDLIGQVVLDNLLELAEQPPDRPLWRDILEGGSEKADLGELNFSLCYLPTAGRLTVTIIKASNLKAMDLTGFSDPYVKASLISEGRRLKKRKTSIKKNTLNPTYNEALVFDVAPESVENVGLSIAVVDYDCIGHNEVIGVCRVGPEAADPHGREHWAEMLANPRKPVEHWHQLVEEKTLSSFTKGGKGLSEKENSE [C10A] | decreasing interaction

Variants of: B2
Conditions: with syt3_mouse Syt3, O35681

Variant | effect of a mutation on the interaction
MSGVWGAGGPRAQAALAVLASLCRARPPPLGLDVETCRSFELQSPEQSPSAADSGTSVSLLAVVVIVCGVALVAVFLFLFWKLCWMPWRKKEASSPSSANPASETLQSPSSRGNMADKLKDPSALGFLEAAVKISHTSPDIPAEVQMSVKEHIMRHTKLQRQTTEPASSTRHTSFKRHLPRQMHVSSVDYGNELPPAAAEQPTSIGRIKPELYKQKSVDGDDAKSEAAKSCGKINFSLRYDYESETLIVRILKAFDLPAKDFCGSSDPYVKIYLLPDRKCKLQTRVHRKTLNPTFDENFHFPVPYEELADRKLHLSVFDFDRFSRHDMIGEVILDNLFEASDLSRETSIWKDIQYATSESVDLGEIMFSLCYLPTAGRLTLTVIKCRNLKAMDITGYSDPYVKVSLLCDGRRLKKKKTTIKKNTLNPIYNEAIIFDIPPENMDQVSLLISVMDYDRVGHNEIIGVCRVGINAEGLGRDHWNEMLAYPRKPIAHWHSLVEVKKSFKEGTPRL [C12A] | decreasing interaction

Variants of: B3
Conditions: with syt6_mouse Syt6, Q9R0N8

Variant | effect of a mutation on the interaction
MSFRKEDGVSSLAQKALHIITELCFAGQVEWDKCSGIFPADRSGQGGGGTDISVSLLAVVVSFCGLALLVVSLFVFWKLCWPCWKSKLVAPNLSVLPQSISSAPTEVFETEEKKEVEENEKPAPKAIEPAIKISHTSPDIPAEVQTALKEHLIKHARVQRQTTEPTSSSRHNSFRRHLPRQMNVSSVDFSVGTEPILQRGETRTSIGRIKPELYKQKSVDSEGNRKDDVKTCGKLNFALQYDYENELLVVKIIKALDLPAKDFTGTSDPYVKIYLLPDRKKKFQTRVHRKTLNPLFDELFQFPVVYDQLSNRKLHFSIYDFDRFSRHDMIGEVILDNLFEVSDLSREATVWKDIHCATTESIDLGEIMFSLCYLPTAGRMTLTVIKCRNLKAMDITGSSDPYVKVSLMCEGRRLKKRKTTTKKNTLNPVYNEAIIFDIPPENVDQVSLCIAVMDYDRVGHNEVIGVCRTGLDAEGLGRDHWNEMLAYHRKPITHWHPLLELPGRATSFDSQGSCSSPRPPSTP [C13A] | decreasing interaction

Variants of: B4
Conditions: with syt10_mouse Syt10, Q9R0N4

Variant | effect of a mutation on the interaction
MPGARDALAHQALQLLAELCARGALEHDSCQDFIYHLRDRARPRLRDPDISVSLLTLVVTACGLALFGVSLFVSWKLCWVPWRERGLFSGSKDNNQEPLNYTDTETNEQENSEDFLDPPTPCPDSSMKISHTSPDIPLSTQPGGQENCAHAVRVQRQVTEPTPSARHNSIRRQLNLSNPDFNIQQLQRQEQLTGIGRIKPELYKQRSLDNDDGRRSNSKACGKLNFILKYDCDLEQLIVKIHKAVNLPAKDFSGTSDPYVKIYLLPDRKTKHQTKVHRKTLNPVFDEVFLFPVHYNDLEARKLHFSVYDFDRFSRHDLIGQVVVDHFFDLADFPRECILWKDIEYVTNDNVDLGELMFSLCYLPTAGRLTITIIKARNLKAMDITGASDPYVKVSLMCDGRRLKKRKTSTKRNTLNPVYNEAIVFDVPPESIDQIHLSIAVMDYDRVGHNEVIGVCQVGNEAERLGRDHWSEMLSYPRKPIAHWHSLMEKR [C9A] | decreasing interaction

Variants of: B5
Conditions: with syt10_mouse Syt10, Q9R0N4

Variant | effect of a mutation on the interaction
MSGDYEDDLARRALILVSDLCARVRDADTNDRCQEFNELRIRGYPRGPDADISVSLLSVIVTFCGIVLLGVSLFVSWKLCWVPWRDKGGSAVGGGPLRKDLAPGVGLAGLVGGGGHHLGASLGGHPLLGGPHHHGHTAHHPPFAELLEPGGLGGSEPPEPSYLDMDSYPEAAVASVVAAGVKPSQTSPELPSEGGTGSGLLLLPPSGGGLPSAQSHQQVTSLAPTTRYPALPRPLTQQTLTTQADPSTEERPPALPLPLPGGEEKAKLIGQIKPELYQGTGPGGRRGGGSGEAGAPCGRISFALRYLYGSDHLVVRILQALDLPAKDSNGFSDPYVKIYLLPDRKKKFQTKVHRKTLNPIFNETFQFSVPLAELAQRKLHFSVYDFDRFSRHDLIGQVVLDNLLELAEQPPDRPLWRDILEGGSEKADLGELNFSLCYLPTAGRLTVTIIKASNLKAMDLTGFSDPYVKASLISEGRRLKKRKTSIKKNTLNPTYNEALVFDVAPESVENVGLSIAVVDYDCIGHNEVIGVCRVGPEAADPHGREHWAEMLANPRKPVEHWHQLVEEKTLSSFTKGGKGLSEKENSE [C10A] | decreasing interaction

Variants of: B6
Conditions: with syt9_mouse Syt9, Q9R0N9

Variant | effect of a mutation on the interaction
MSFRKEDGVSSLAQKALHIITELCFAGQVEWDKCSGIFPADRSGQGGGGTDISVSLLAVVVSFCGLALLVVSLFVFWKLCWPCWKSKLVAPNLSVLPQSISSAPTEVFETEEKKEVEENEKPAPKAIEPAIKISHTSPDIPAEVQTALKEHLIKHARVQRQTTEPTSSSRHNSFRRHLPRQMNVSSVDFSVGTEPILQRGETRTSIGRIKPELYKQKSVDSEGNRKDDVKTCGKLNFALQYDYENELLVVKIIKALDLPAKDFTGTSDPYVKIYLLPDRKKKFQTRVHRKTLNPLFDELFQFPVVYDQLSNRKLHFSIYDFDRFSRHDMIGEVILDNLFEVSDLSREATVWKDIHCATTESIDLGEIMFSLCYLPTAGRMTLTVIKCRNLKAMDITGSSDPYVKVSLMCEGRRLKKRKTTTKKNTLNPVYNEAIIFDIPPENVDQVSLCIAVMDYDRVGHNEVIGVCRTGLDAEGLGRDHWNEMLAYHRKPITHWHPLLELPGRATSFDSQGSCSSPRPPSTP [C13A] | decreasing interaction

Reference: IntAct's records for PubMed 10531343
